Experimental data from US20110274702A1.

Key:
Test in all cases: ELISA on coated HA
[1] = molecular target: H3N2 A/Wyoming/3/03 HA protein (influenza A virus H3N2 A/Wyoming/3/03)
[2] = molecular target: H8N4 A/Alberta/357/84 HA protein (influenza A virus H8N4 A/Alberta/357/84)
[3] = molecular target: H4N6 A/duck/Czechoslovakia/56 HA protein (influenza A virus H4N6 A/duck/Czechoslovakia/56) (UniProt P19696)
[4] = molecular target: H5N1 A/Viet Nam/1203/04 HA protein (influenza A virus H5N1 A/Viet Nam/1203/04)
[5] = molecular target: H10N4 A/mink/Sweded/3900/84 HA protein (influenza A virus H10N4 A/mink/Sweded/3900/84)
[6] = molecular target: H3N2 A/New York/55/04 HA protein (influenza A virus H3N2 A/New York/55/04)
[7] = molecular target: H6N5 A/shearwater/Australia/1/72 HA protein (influenza A virus H6N5 A/shearwater/Australia/1/72)
[8] = molecular target: H1N1 A/Brisbane/59/07 HA protein (influenza A virus H1N1 A/Brisbane/59/07)
[9] = molecular target: H3N2 A/Brisbane/10/07 HA protein (influenza A virus H3N2 A/Brisbane/10/07)
[10] = molecular target: H9N2 A/Hong Kong/1073/99 HA protein (influenza A virus H9N2 A/Hong Kong/1073/99)
[11] = molecular target: H7N3 A/Canada/444/04 HA protein (influenza A virus H7N3 A/Canada/444/04)
[12] = molecular target: H5N1 A/Viet Nam/1/05 HA protein (influenza A virus H5N1 A/Viet Nam/1/05)
[13] = molecular target: H7N7 A/Netherlands/219/03 HA protein (influenza A virus H7N7 A/Netherlands/219/03)
[14] = molecular target: B/Ohio/1/05 HA protein (influenza B virus B/Ohio/1/05)

Measured: EC50

ctr (antibody)
> 20 µg/mL: all assays above
